# Assay results as given in publication PMC4491196.
# Biological target: Dnmt3a (ADD domain, ADD3a) ADD domain, 479-610 or 476-611 (UniProt Q9Y6K1)
# Test: biotin-peptide pull-down, Coomassie
# Settings: reference: unmodified H3 peptide; sites S10
substance,measurement,value
histone H3 (N-terminal peptides) (from UniProt P68431) H3S10ph peptide,binding against the reference,same
